These results are taken from patent US20240207421A1, “NERVE TARGETING PEPTIDES AND METHODS OF USE” (ALUME BIOSCIENCES, INC., priority 2020, published 2024).

Assay [1] deals with T1, Human Myelin Basic Protein (Homo sapiens, UniProt P02686). Nature of the assay: Phage display library screening (Example 1, Power BI analysis), binding to Human Myelin Basic Protein. The arrangement: Enzo 200-606-M001 from human; purchased Enzo 200-606-M001; host or cells: human brain (tissue-derived). The conditions noted are these: R3 Myelin Basic Protein, NextGen sequencing count of phage sequences distinct for this target. An excerpt:
(§1) Phage display library screens were used to identify peptides that bind to target proteins that are expressed in human nerves and could therefore be useful for systemic in-vivo labeling of nerves during fluorescence assisted surgery. Specifically, m13 phage libraries expressing 7 or 12 random amino acid peptides, or a cyclic peptide CX7C, on the N-terminus of the minor coat protein pIII (New England Biolabs) were processed through multiple rounds of selection for binding to target proteins expressed in peripheral nerve (Table 1).
(§2) The library was processed through up to 4 binding and wash cycles. For selection, phage libraries were incubated for up to 24 hours at 4° C. in 96 well plates that had been coated with one of the target proteins. Plates were then washed with PBS and phage were eluted using 0.2M glycine pH 2.0. Phage supernatants where then neutralized with Tris pH 9.0 prior to plating on TG1 bacteria and LB agar plates. Colonies were counted to determine titer followed by DNA preparation of pools of phage and NextGen sequencing. After rounds of selection, phage were pooled and amplified for iterative selection. Phage that were bound at each round were sequenced. NextGen sequencing of pools after 2, 3 and 4 rounds of selection was used to isolate candidate sequences that were analyzed further to identify those that specifically bound each unique target protein.
(§3) DNA sequences were trimmed of all vector amino acids and imported as a peptide dataset into Power BI. Power BI was used to identify phage display sequences for specific columns (corresponding to each target protein) in order to identify sequences that were distinct for each protein target. The Power BI code evaluated each individual sequence for each protein target against the sequences present in other protein targets in a test for uniqueness. Using the distinct flag, the Power BI code generated a filtered peptide dataset that excluded any peptide sequence that occur in more than one column which identified a specific protein target. This method therefore identified candidate peptide sequences showing selective binding to an individual target protein. Unique sequences in each column were sorted by individual counts such that the most selected sequences appeared at the top of the column.

For assay [2], the system named is Human MPZ. Nature of the assay: Phage display library screening (Example 2, Python script analysis), binding to Human MPZ. As to conditions: combined unique sequence count, Python/R script analysis. The protocol:
Phage display library screens were used to identify peptides that bind to target proteins (including specific laminin trimers) that are expressed in human nerves, as described in Table 3. These screens were also carried out to identify peptides that could bind selectively to nerves versus muscle. Such peptides could therefore be useful for systemic in-vivo labeling of nerves during fluorescence assisted surgery. Specifically, m 13 phage libraries expressing 7 or 12 random amino acid peptides, or a cyclic peptide CX7C, on the N-terminus of the minor coat protein pIII (New England Biolabs; NEB) were processed through multiple rounds of selection for binding to target proteins expressed in nerves, or to excised human nerves, nerve extracts, or muscle, as described further below.
as §2, with “For screening against the specified target proteins in Table 1, including LN211, LN411, LN421, and LN521, the phage” for “The”, “by” for “through”, “TGI” for “TG1”
Python Script Analysis: For all NEB sequence datasets, a python script was used to translate, trim, and filter the peptide sequences. The script translated the nucleotide sequences, translating amber codons as glutamine in peptide sequences, and then trimmed the end sequences that come from the vector. Secondly, the script combined the unique counts of trimmed peptides with identical sequences. […] Another python script was used to group peptides from different assays according to protein target (Myelin Protein Zero, Myelin Proteolipid Protein, Myelin Basic Protein, and Nidogen-2) and also combine the unique sequence counts for each peptide. An R script was written to merge the peptide sequences from different data files and determine peptides specific for each protein target but absent from different protein binding datasets. Peptide sequences were ranked by unique sequence count.

In assay [3] the target is T2, Human MPZ (Homo sapiens, UniProt P25189).
T2 construct: purchased Novoprotein (lysate); Bon Opus Biosciences (recombinant protein) NBL1 1321 (lysate); no catalogue number printed for the Bon Opus protein
T2 sequence (P25189 30-248): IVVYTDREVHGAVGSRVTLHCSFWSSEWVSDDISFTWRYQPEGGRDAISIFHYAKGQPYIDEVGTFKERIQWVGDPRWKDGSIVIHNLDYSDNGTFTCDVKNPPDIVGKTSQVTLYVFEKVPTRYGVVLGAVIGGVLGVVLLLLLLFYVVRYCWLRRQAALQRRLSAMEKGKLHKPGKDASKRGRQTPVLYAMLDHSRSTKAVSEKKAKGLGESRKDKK
Put plainly: Phage display library screening (Example 1, Power BI analysis), binding to Human MPZ. The conditions noted are these: R3 Human MPZ, NextGen sequencing count of phage sequences distinct for this target.
From the text: as §1, §2, §3

Assay [4] addresses T1, Human Myelin Basic Protein. Nature of the assay: Phage display library screening (Example 2, Python script analysis), binding to Human Myelin Basic Protein. On the set-up: Enzo 200-606-M001 from human; purchased Enzo 200-606-M001; host or cells: human brain (tissue-derived). As to conditions: R3 Myelin Basic Protein; combined unique sequence count, Python/R script analysis. An outline of the steps: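 Target protein-coated wells were panned with M13 phage libraries displaying 7- or 12-mer random or cyclic CX7C peptides on pIII, over up to 4 rounds (up to 24 h, 4° C), with glycine pH 2.0 elution. Pools from rounds 2–4 were NextGen-sequenced. Peptides specific to each target were ranked by unique sequence count.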

Assay [5] addresses Human Myelin PLP (human) (UniProt P60201). Nature of the assay: phage display R3, NGS count.
For assay [6] the target is unchanged. Put plainly: phage display, NGS count.

T1 sequence (P02686 134-304): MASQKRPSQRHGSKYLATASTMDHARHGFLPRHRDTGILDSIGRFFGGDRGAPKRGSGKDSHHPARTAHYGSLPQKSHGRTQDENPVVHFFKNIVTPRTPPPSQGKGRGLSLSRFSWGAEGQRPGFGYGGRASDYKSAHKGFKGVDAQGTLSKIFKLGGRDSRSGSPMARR
Chain of Human Myelin PLP (human) (P60201 2-277 limits assumed): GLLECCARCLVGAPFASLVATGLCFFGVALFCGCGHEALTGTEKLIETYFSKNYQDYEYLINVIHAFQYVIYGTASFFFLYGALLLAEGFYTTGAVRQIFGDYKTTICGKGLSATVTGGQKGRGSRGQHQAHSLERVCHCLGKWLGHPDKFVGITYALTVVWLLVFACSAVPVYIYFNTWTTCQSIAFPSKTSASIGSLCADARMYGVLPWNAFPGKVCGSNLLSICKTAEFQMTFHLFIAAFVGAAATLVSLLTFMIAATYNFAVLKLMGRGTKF

On to “AGFPPNT (R3 Myelin Basic Protein-binding peptide)”, for which, in assay [1], the Count came out at 10.

“AGQLMRCANC (R3 Myelin Basic Protein-binding peptide)”: the Count in assay [1] was 12.

Regarding “AITSRNA (R3 Myelin Basic Protein-binding peptide)”, the Count in assay [1] stood at 15.

Regarding ALPLSAS (R3 Human MPZ-binding peptide), the Count in the assay with Human MPZ [2] was 197; with Human MPZ [3], 196.

“AWSTSSV (R3 Myelin Basic Protein-binding peptide)”: the Count in assay [1] and in assay [4] was 12 each time.

Regarding “DGKNTSN (R3 Myelin Basic Protein-binding peptide)”, the Count in assay [1] was 10.

For the substance DPITRLK (R3 Human MPZ-binding peptide), the Count in the assay with Human MPZ [2] was 93; with Human MPZ [3], 92.

For “DPWVMLR (R3 Myelin Basic Protein-binding peptide)”, the Count in assay [1] and in assay [4] was 11 throughout.

DRNSVFW (R3 Human MPZ-binding peptide): the Count in the assay with Human MPZ [2] and with Human MPZ [3] was 50 throughout.

As to DTSRTME (peptide), the Count with Human Myelin PLP (human) [5] and with Human Myelin PLP (human) [6] was 33 each time.

As to “EHGYYKV (R3 Myelin Basic Protein-binding peptide)”, the Count came out at 16 in assay [1] and 17 in assay [4].

Consider EKPSWTR (peptide), for which the Count with Human Myelin PLP (human) [5] and in the assay with Human Myelin PLP (human) [6] was 33 each time.

Consider ETTRNYG (R3 Human MPZ-binding peptide), for which the results for the Count in the assay with Human MPZ [2] and in the assay with Human MPZ [3] were 69 and 68, respectively.

Take FKMPIPT (peptide): the Count with Human Myelin PLP (human) [5] and in the assay with Human Myelin PLP (human) [6] was 34 in each case.

For “GDERIVRTLSHN (R3 Human MPZ-binding peptide)”, the Count with Human MPZ [3] is 47.

In the case of GLIRHYT (peptide), the Count with Human Myelin PLP (human) [5] and with Human Myelin PLP (human) [6] was 66 throughout.

GLTPKLF (R3 Human MPZ-binding peptide) had a Count in the assay with Human MPZ [3] of 48.

As for GPLRMAT (R3 Human MPZ-binding peptide), the Count in the assay on Human MPZ [2] is on record as 51; in the assay with Human MPZ [3], 50.

The substance “HPSTWHK (R3 Myelin Basic Protein-binding peptide)” showed a Count in assay [1] of 18.

On to HQGSRTY (peptide), for which the Count in the assay with Human Myelin PLP (human) [5] and in the assay with Human Myelin PLP (human) [6] was 53 throughout.

With IKPPYTH (R3 Human MPZ-binding peptide), the values for the Count in the assay with Human MPZ [2] and in the assay with Human MPZ [3] were 82 and 78, respectively.

In assay [1], “ILLPSLN (R3 Myelin Basic Protein-binding peptide)” came in with a Count of 13.

On to KMAGHTV (R3 Human MPZ-binding peptide), for which the Count with Human MPZ [2] was determined as 54; with Human MPZ [3], 51.

Take LALYARM (peptide): the Count with Human Myelin PLP (human) [5] and in the assay with Human Myelin PLP (human) [6] was 44 in each case.

Take LRFQIPP (peptide): the Count in the assay with Human Myelin PLP (human) [5] and in the assay with Human Myelin PLP (human) [6] was 44 each time.

Substance “LRPISHE (R3 Myelin Basic Protein-binding peptide)” registered a Count in assay [1] of 12.

For LSSPLSL (R3 Human MPZ-binding peptide), the Count in the assay on Human MPZ [2] and with Human MPZ [3] was 56 in each case.

For LTHHFAP (peptide), the Count with Human Myelin PLP (human) [5] and in the assay with Human Myelin PLP (human) [6] was 40 throughout.

For the substance “MQTQGRV (R3 Myelin Basic Protein-binding peptide)”, in assay [1], the Count turned out to be 12.

Regarding “NDTKTPS (R3 Myelin Basic Protein-binding peptide)”, the Count in assay [1] is 19.

Take NPNWRTI (peptide): the Count with Human Myelin PLP (human) [5] and in the assay with Human Myelin PLP (human) [6] was 34 throughout.

On to NPSHHPR (peptide), for which the Count with Human Myelin PLP (human) [5] and with Human Myelin PLP (human) [6] was 37 in each case.

As to “QIGVLPS (R3 Myelin Basic Protein-binding peptide)”, in assay [1], the Count is on record as 11.

RFELPAP (peptide): the Count in the assay with Human Myelin PLP (human) [5] and with Human Myelin PLP (human) [6] was 52 in each case.

In the case of RHNVEFS (peptide), the Count in the assay with Human Myelin PLP (human) [5] and in the assay with Human Myelin PLP (human) [6] was 42 each time.

In the case of RVPHSRT (R3 Human MPZ-binding peptide), in the assay with Human MPZ [3], the Count was 49.

As to SAHAKHH (R3 Human MPZ-binding peptide), the Count is recorded as 52 in the assay on Human MPZ [2] and 51 with Human MPZ [3].

As for SHLASRP (R3 Human MPZ-binding peptide), in the assay with Human MPZ [3], the Count was 97.

Take SHSPGNK (R3 Human MPZ-binding peptide): the Count came out at 79 in the assay with Human MPZ [2] and 67 with Human MPZ [3].

Substance “SKSDAWR (R3 Myelin Basic Protein-binding peptide)” gave a Count in assay [1] of 14.

In the case of SMWSQFR (peptide), the Count with Human Myelin PLP (human) [5] and in the assay with Human Myelin PLP (human) [6] was 34 throughout.

Take “SVLRMLN (R3 Myelin Basic Protein-binding peptide)”: in assay [1], the Count worked out at 16.

As for TESLFPH (R3 Human MPZ-binding peptide), the figures for the Count in the assay with Human MPZ [2] and with Human MPZ [3] were 52 and 50, respectively.

TMASPAK (R3 Human MPZ-binding peptide): the Count was 58 in the assay on Human MPZ [2] and 52 with Human MPZ [3].

Turning to TNPWKPH (peptide), the Count in the assay with Human Myelin PLP (human) [5] and with Human Myelin PLP (human) [6] was 62 in each case.

TSPWELR (R3 Human MPZ-binding peptide): the figures for the Count in the assay on Human MPZ [2] and in the assay with Human MPZ [3] were 108 and 107, respectively.

Turning to VLKNNPT (R3 Human MPZ-binding peptide), the Count with Human MPZ [2] is reported as 87; with Human MPZ [3] it was 86.

As for VLTKPMP (R3 Human MPZ-binding peptide), the Count with Human MPZ [2] and with Human MPZ [3] was 56 in each case.

As for WPSISRP (R3 Human MPZ-binding peptide), the Count in the assay on Human MPZ [2] was found to be 58; with Human MPZ [3], 57.

As for YPKLWTY (peptide), the Count in the assay with Human Myelin PLP (human) [5] and with Human Myelin PLP (human) [6] was 35 throughout.

As for YTPMGTG (peptide), the Count with Human Myelin PLP (human) [5] and with Human Myelin PLP (human) [6] was 50 each time.
